B1: W804^6.53bA (protein, UniProt Q5T601 20-910, looked up, variant W804A)
Adhesion G-protein coupled …: GFLGKNDGIKTKKELIVNKKKHLGPVEEYQLLLQVTYRDSKEKRDLRNFLKLLKPPLLWSHGLIRIIRAKATTDCNSLNGVLQCTCEDSYTWFPPSCLDPQNCYLHTAGALPSCECHLNNLSQSVNFCERTKIWGTFKINERFTNDLLNSSSAIYSKYANGIEIQLKKAYERIQGFESVQVTQFRNGSIVAGYEVVGSSSASELLSAIEHVAEKAKTALHKLFPLEDGSFRVFGKAQCNDIVFGFGSKDDEYTLPCSSGYRGNITAKCESSGWQVIRETCVLSLLEELNKNFSMIVGNATEAAVSSFVQNLSVIIRQNPSTTVGNLASVVSILSNISSLSLASHFRVSNSTMEDVISIADNILNSASVTNWTVLLREEKYASSRLLETLENISTLVPPTALPLNFSRKFIDWKGIPVNKSQLKRGYSYQIKMCPQNTSIPIRGRVLIGSDQFQRSLPETIISMASLTLGNILPVSKNGNAQVNGPVISTVIQNYSINEVFLFFSKIESNLSQPHCVFWDFSHLQWNDAGCHLVNETQDIVTCQCTHLTSFSILMSPFVPSTIFPVVKWITYVGLGISIGSLILCLIIEALFWKQIKKSQTSHTRRICMVNIALSLLIADVWFIVGATVDTTVNPSGVCTAAVFFTHFFYLSLFFWMLMLGILLAYRIILVFHHMAQHLMMAVGFCLGYGCPLIISVITIAVTQPSNTYKRKDVCWLNWSNGSKPLLAFVVPALAIVAVNFVVVLLVLTKLWRPTVGERLSRDDKATIIRVGKSLLILTPLLGLTAGFGIGTIVDSQNLAWHVIFALLNAFQGFFILCFGILLDSKLRQLLFNKLSALSSWKQTEKQNSSDLSAKPKFSKPFNPLQNKGHYAFSHTGDSSDNIMLTQFVSNE
B2: N827^7.46bA (protein, UniProt Q5T601 20-910, looked up, variant N827A)
Adhesion G-protein coupled …: GFLGKNDGIKTKKELIVNKKKHLGPVEEYQLLLQVTYRDSKEKRDLRNFLKLLKPPLLWSHGLIRIIRAKATTDCNSLNGVLQCTCEDSYTWFPPSCLDPQNCYLHTAGALPSCECHLNNLSQSVNFCERTKIWGTFKINERFTNDLLNSSSAIYSKYANGIEIQLKKAYERIQGFESVQVTQFRNGSIVAGYEVVGSSSASELLSAIEHVAEKAKTALHKLFPLEDGSFRVFGKAQCNDIVFGFGSKDDEYTLPCSSGYRGNITAKCESSGWQVIRETCVLSLLEELNKNFSMIVGNATEAAVSSFVQNLSVIIRQNPSTTVGNLASVVSILSNISSLSLASHFRVSNSTMEDVISIADNILNSASVTNWTVLLREEKYASSRLLETLENISTLVPPTALPLNFSRKFIDWKGIPVNKSQLKRGYSYQIKMCPQNTSIPIRGRVLIGSDQFQRSLPETIISMASLTLGNILPVSKNGNAQVNGPVISTVIQNYSINEVFLFFSKIESNLSQPHCVFWDFSHLQWNDAGCHLVNETQDIVTCQCTHLTSFSILMSPFVPSTIFPVVKWITYVGLGISIGSLILCLIIEALFWKQIKKSQTSHTRRICMVNIALSLLIADVWFIVGATVDTTVNPSGVCTAAVFFTHFFYLSLFFWMLMLGILLAYRIILVFHHMAQHLMMAVGFCLGYGCPLIISVITIAVTQPSNTYKRKDVCWLNWSNGSKPLLAFVVPALAIVAVNFVVVLLVLTKLWRPTVGERLSRDDKATIIRVGKSLLILTPLLGLTWGFGIGTIVDSQNLAWHVIFALLAAFQGFFILCFGILLDSKLRQLLFNKLSALSSWKQTEKQNSSDLSAKPKFSKPFNPLQNKGHYAFSHTGDSSDNIMLTQFVSNE
B3: H820^7.39bA (protein, UniProt Q5T601 20-910, looked up, variant H820A)
Adhesion G-protein coupled …: GFLGKNDGIKTKKELIVNKKKHLGPVEEYQLLLQVTYRDSKEKRDLRNFLKLLKPPLLWSHGLIRIIRAKATTDCNSLNGVLQCTCEDSYTWFPPSCLDPQNCYLHTAGALPSCECHLNNLSQSVNFCERTKIWGTFKINERFTNDLLNSSSAIYSKYANGIEIQLKKAYERIQGFESVQVTQFRNGSIVAGYEVVGSSSASELLSAIEHVAEKAKTALHKLFPLEDGSFRVFGKAQCNDIVFGFGSKDDEYTLPCSSGYRGNITAKCESSGWQVIRETCVLSLLEELNKNFSMIVGNATEAAVSSFVQNLSVIIRQNPSTTVGNLASVVSILSNISSLSLASHFRVSNSTMEDVISIADNILNSASVTNWTVLLREEKYASSRLLETLENISTLVPPTALPLNFSRKFIDWKGIPVNKSQLKRGYSYQIKMCPQNTSIPIRGRVLIGSDQFQRSLPETIISMASLTLGNILPVSKNGNAQVNGPVISTVIQNYSINEVFLFFSKIESNLSQPHCVFWDFSHLQWNDAGCHLVNETQDIVTCQCTHLTSFSILMSPFVPSTIFPVVKWITYVGLGISIGSLILCLIIEALFWKQIKKSQTSHTRRICMVNIALSLLIADVWFIVGATVDTTVNPSGVCTAAVFFTHFFYLSLFFWMLMLGILLAYRIILVFHHMAQHLMMAVGFCLGYGCPLIISVITIAVTQPSNTYKRKDVCWLNWSNGSKPLLAFVVPALAIVAVNFVVVLLVLTKLWRPTVGERLSRDDKATIIRVGKSLLILTPLLGLTWGFGIGTIVDSQNLAWAVIFALLNAFQGFFILCFGILLDSKLRQLLFNKLSALSSWKQTEKQNSSDLSAKPKFSKPFNPLQNKGHYAFSHTGDSSDNIMLTQFVSNE
B4: M675^3.47bA (protein, UniProt Q5T601 20-910, looked up, variant M675A)
Adhesion G-protein coupled …: GFLGKNDGIKTKKELIVNKKKHLGPVEEYQLLLQVTYRDSKEKRDLRNFLKLLKPPLLWSHGLIRIIRAKATTDCNSLNGVLQCTCEDSYTWFPPSCLDPQNCYLHTAGALPSCECHLNNLSQSVNFCERTKIWGTFKINERFTNDLLNSSSAIYSKYANGIEIQLKKAYERIQGFESVQVTQFRNGSIVAGYEVVGSSSASELLSAIEHVAEKAKTALHKLFPLEDGSFRVFGKAQCNDIVFGFGSKDDEYTLPCSSGYRGNITAKCESSGWQVIRETCVLSLLEELNKNFSMIVGNATEAAVSSFVQNLSVIIRQNPSTTVGNLASVVSILSNISSLSLASHFRVSNSTMEDVISIADNILNSASVTNWTVLLREEKYASSRLLETLENISTLVPPTALPLNFSRKFIDWKGIPVNKSQLKRGYSYQIKMCPQNTSIPIRGRVLIGSDQFQRSLPETIISMASLTLGNILPVSKNGNAQVNGPVISTVIQNYSINEVFLFFSKIESNLSQPHCVFWDFSHLQWNDAGCHLVNETQDIVTCQCTHLTSFSILMSPFVPSTIFPVVKWITYVGLGISIGSLILCLIIEALFWKQIKKSQTSHTRRICMVNIALSLLIADVWFIVGATVDTTVNPSGVCTAAVFFTHFFYLSLFFWALMLGILLAYRIILVFHHMAQHLMMAVGFCLGYGCPLIISVITIAVTQPSNTYKRKDVCWLNWSNGSKPLLAFVVPALAIVAVNFVVVLLVLTKLWRPTVGERLSRDDKATIIRVGKSLLILTPLLGLTWGFGIGTIVDSQNLAWHVIFALLNAFQGFFILCFGILLDSKLRQLLFNKLSALSSWKQTEKQNSSDLSAKPKFSKPFNPLQNKGHYAFSHTGDSSDNIMLTQFVSNE

The test system of this series is ADGRF1. The series is described as follows: Cell-surface expression by flow cytometry, ADGRF1. The following applies: ADGRF1 constructs (pF1 Gi part of table), anti-Flag antibody, three independent measurements in duplicate. The series is classed as cell-based, human. The protocol:
The wild-type ADGRD1 and ADGRF1 and mutants used in functional studies were constructed into a pTT5 vector with a Flag tag at the N terminus for receptor expression measurement. The basal activity of ADGRD1 and ADGRF1 in mediating Gs signalling was measured by a cAMP accumulation assay using a LANCE Ultra cAMP detection kit (PerkinElmer) following the manufacturer’s instruction. In brief, 2 ml HEK293F cells (Invitrogen; cells were routinely tested for mycoplasma contamination) at a density of 1.2 × 10^6 cells per ml were transiently transfected with 2,000 ng plasmid of the wild-type or mutant receptor and cultured at 37 °C for 48 h with 5% CO2 atmosphere in a shaker shaking at 220 rpm. After collection, the cell-surface expression of the receptors was measured by incubating 10 μl cells with 15 μl monoclonal anti-Flag M2-FITC antibody (Sigma; 1:120 diluted in TBS supplemented with 4% BSA and 20% viability staining solution 7-AAD (Invitrogen)) at 4 °C for 20 min. After incubation, 175 μl TBS buffer was added and the fluorescent signal was measured using a flow cytometry reader (Guava easyCyte HT, Millipore).
For orientation: Flow cytometry measures light scatter and fluorescence of single cells or particles in a stream.
Regarding B1, the “Cell-surface expression (% of WT)” value was 93 ± 4 % of WT.
The result for B2 reads 97 ± 21 % of WT.
The result for B3 reads 77 ± 1 % of WT.
The result for B4 reads 107 ± 2 % of WT.
